From the supplement of paper PMC10126150
± gives the standard deviation of the averaged measurements.

Tested on: ATP
Test: switch fluorescence ratio, 500 uM ATP over buffer (Cy3 cluster intensity, sum of 5 cycles each) (fold (ratio)); higher = stronger signal-on switching upon ATP binding; sequences stand for … in TCGTCGGCAGCGTCAGATGTGTATAAGAGACAGTTTTTTTTTTTTTTTTTTTTTTTTT…TC
Settings: aptamer strand: ATP DNA aptamer (quencher-CACCTGGGGGAGTATTGCGGAGGAAGG + anchor), 100 nM annealed; ATP concentration: 500 uM
Outline: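 Values give the fluorescence ratio for each switch-domain sequence, averaged from per-cluster ratios of summed target-cycle to summed buffer-cycle Cy3 intensity. The Cy3-labelled switching-strand clusters sat on a modified Illumina MiSeq flow-cell, were annealed to 100 nM quencher-labelled ATP aptamer, and were imaged in selection buffer, then after 15 min with 500 uM ATP at 22 °C. Five cycles ran with NaOH stripping and re-annealing between them, and clusters outside 100-1000 RFU were excluded.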
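Also: ATP exposure 15 min at 22 °C before imaging.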

| Sequence | switch fluorescence ratio |
| --- | --- |
| AGGATCCTCG | 0.992 ± 0.018 |
| AGGATCGATG | 1 ± 0.05 |
| AGGATCGGGG | 1.01 ± 0.013 |
| AGGATCTACT | 1.01 ± 0.021 |
| AGGATGAGGT | 0.978 ± 0.057 |
| AGGATGGAGT | 0.987 ± 0.031 |
| AGGATGGGGT | 0.966 ± 0.017 |
| AGGATGTTGG | 0.993 ± 0.026 |
| AGGATTAAGG | 0.992 ± 0.018 |
| AGGATTAGGA | 1.01 ± 0.062 |
| AGGATTGTGT | 0.9523 ± 0.0032 |
| AGGATTTAAG | 1.05 ± 0.022 |
| AGGATTTCGT | 1.008 ± 0.0068 |
| AGGCAGACTT | 1.004 ± 0.0089 |
| AGGCAGGACT | 1.02 ± 0.044 |
| AGGCAGTCCA | 1.003 ± 0.0065 |
| AGGCCACCTT | 1.04 ± 0.023 |
| AGGCCCATGT | 1.02 ± 0.012 |
| AGGCCCCCCA | 1.328 ± 0.013 |
| AGGCCCGTTT | 1.02 ± 0.029 |
| AGGCCCTAAG | 1.01 ± 0.017 |
| AGGCCGGCTG | 0.96 ± 0.066 |
| AGGCCTCAGG | 0.99 ± 0.022 |

| Sequence | switch fluorescence ratio |
| --- | --- |
| AGGCGGACTG | 1.02 ± 0.13 |
| AGGCGGATGT | 0.978 ± 0.016 |
| AGGCGGGCAG | 1.039 ± 0.004 |
| AGGCGGGCGG | 0.959 ± 0.019 |
| AGGCGTTTAG | 1.03 ± 0.059 |
| AGGCTACATA | 1.03 ± 0.019 |
| AGGCTACCGT | 1.0254 ± 0.001 |
| AGGCTAGGAG | 0.994 ± 0.053 |
| AGGCTCCTCT | 1.02 ± 0.025 |
| AGGCTCGGGG | 1.04 ± 0.026 |
| AGGCTCTAAG | 1.01 ± 0.011 |
| AGGCTCTTAT | 1.03 ± 0.049 |
| AGGCTGCATG | 1.01 ± 0.021 |
| AGGCTGTTTT | 1.02 ± 0.016 |
| AGGCTTAGGG | 1.03 ± 0.022 |
| AGGCTTATAT | 1.01 ± 0.024 |
| AGGCTTATTT | 1 ± 0.023 |
| AGGCTTGTTT | 0.996 ± 0.015 |
| AGGGAAAAGA | 1.03 ± 0.031 |
| AGGGAAATCG | 0.979 ± 0.037 |
| AGGGAAGTTG | 1.01 ± 0.07 |
| AGGGAGGTTT | 0.944 ± 0.073 |
| AGGGAGTATG | 1.01 ± 0.023 |

| Sequence | switch fluorescence ratio |
| --- | --- |
| AGGGAGTGGG | 0.968 ± 0.027 |
| AGGGAGTTTT | 1.01 ± 0.026 |
| AGGGATAAAA | 1.02 ± 0.055 |
| AGGGATAAGC | 0.988 ± 0.021 |
| AGGGATAATT | 0.975 ± 0.027 |
| AGGGATAGTT | 0.992 ± 0.0047 |
| AGGGATCTGC | 0.966 ± 0.028 |
| AGGGATGGGG | 0.976 ± 0.016 |
| AGGGATGGTA | 1.006 ± 0.0083 |
| AGGGATTTGT | 1.028 ± 0.003 |
| AGGGATTTTT | 0.999 ± 0.011 |
| AGGGCAAACG | 1.05 ± 0.0075 |
| AGGGCAACTG | 1.07 ± 0.079 |
| AGGGCAGCTT | 1.06 ± 0.025 |
| AGGGCATTCT | 0.9837 ± 0.0017 |
| AGGGCCGTAT | 1.04 ± 0.056 |
| AGGGCCTTAG | 0.9733 ± 0.009 |
| AGGGCGACAG | 1.01 ± 0.012 |
| AGGGCGGGTG | 1.047 ± 0.0095 |
| AGGGCGGTGT | 0.991 ± 0.027 |
| AGGGCGTCTA | 1.015 ± 0.003 |
| AGGGCGTCTC | 0.981 ± 0.043 |
| AGGGCGTTAG | 1.01 ± 0.044 |

| Sequence | switch fluorescence ratio |
| --- | --- |
| AGGGCTATTT | 0.973 ± 0.01 |
| AGGGCTGATA | 1.009 ± 0.0013 |
| AGGGCTGCCC | 1 ± 0.021 |
| AGGGCTGCGT | 0.984 ± 0.017 |
| AGGGCTGGGG | 0.973 ± 0.019 |
| AGGGCTTAGA | 0.9905 ± 0.0033 |
| AGGGGAAAAC | 1.03 ± 0.044 |
| AGGGGAAGGA | 1 ± 0.049 |
| AGGGGAATGG | 0.997 ± 0.015 |
| AGGGGACGAC | 1.02 ± 0.027 |
| AGGGGACGCC | 0.9928 ± 0.0049 |
| AGGGGACTAT | 1 ± 0.013 |
| AGGGGAGGAC | 1.03 ± 0.02 |
| AGGGGAGGCA | 1.02 ± 0.089 |
| AGGGGAGTGG | 0.992 ± 0.038 |
| AGGGGAGTTA | 1.02 ± 0.051 |
| AGGGGATAGG | 0.98 ± 0.046 |
| AGGGGATAGT | 0.9659 ± 0.0091 |
| AGGGGATGAA | 1.04 ± 0.027 |
| AGGGGATGTG | 0.97 ± 0.048 |
| AGGGGATTC | 1.002 ± 0.0075 |
| AGGGGCAAAC | 1.45 ± 0.078 |
| AGGGGCCCGC | 0.98 ± 0.018 |

| Sequence | switch fluorescence ratio |
| --- | --- |
| AGGGGCTGGG | 0.99 ± 0.017 |
| AGGGGCTGGT | 0.997 ± 0.026 |
| AGGGGCTTCG | 1.04 ± 0.015 |
| AGGGGCTTCT | 1.06 ± 0.028 |
| AGGGGCTTTA | 1.14 ± 0.2 |
| AGGGGGACGT | 0.998 ± 0.024 |
| AGGGGGAGAT | 1.02 ± 0.042 |
| AGGGGGAGGT | 0.975 ± 0.017 |
| AGGGGGATTG | 0.987 ± 0.03 |
| AGGGGGCAAT | 1.11 ± 0.18 |
| AGGGGGCCAG | 1 ± 0.019 |
| AGGGGGCGGG | 1.03 ± 0.035 |
| AGGGGGCGGT | 0.959 ± 0.033 |
| AGGGGGGAAT | 1.03 ± 0.048 |
| AGGGGGGACA | 1.02 ± 0.084 |
| AGGGGGGAGC | 1.01 ± 0.029 |
| AGGGGGGCCG | 1.08 ± 0.019 |
| AGGGGGGCTT | 1.01 ± 0.054 |
| AGGGGGGGAT | 0.982 ± 0.029 |
| AGGGGGGGCG | 0.975 ± 0.05 |
| AGGGGGGGT | 1.05 ± 0.077 |
| AGGGGGTAGT | 0.983 ± 0.011 |
| AGGGGGTATG | 0.983 ± 0.014 |

| Sequence | switch fluorescence ratio |
| --- | --- |
| AGGGGGTATT | 1.01 ± 0.024 |
| AGGGGGTCAG | 0.986 ± 0.027 |
| AGGGGGTT | 1 ± 0.077 |
| AGGGGGTTGT | 0.995 ± 0.026 |
| AGGGGGTTTA | 0.999 ± 0.031 |
| AGGGGGTTTT | 1 ± 0.036 |
| AGGGGTACGT | 0.982 ± 0.011 |
| AGGGGTACTT | 1 ± 0.049 |
| AGGGGTAGTT | 1.01 ± 0.029 |
| AGGGGTATT | 1 ± 0.014 |
| AGGGGTATTA | 1.002 ± 0.01 |
| AGGGGTGATA | 1.023 ± 0.0047 |
| AGGGGTGCCA | 0.9529 ± 0.0048 |
| AGGGGTTACG | 0.981 ± 0.044 |
| AGGGGTTATG | 1 ± 0.021 |
| AGGGGTTGGT | 0.983 ± 0.027 |
| AGGGGTTTGC | 0.957 ± 0.021 |
| AGGGTAAAAG | 1.03 ± 0.024 |
| AGGGTAACGA | 0.999 ± 0.035 |
| AGGGTACTGT | 1.05 ± 0.092 |
| AGGGTAGTGC | 0.9869 ± 0.0091 |
| AGGGTATTAG | 0.995 ± 0.025 |
| AGGGTATTCG | 0.9981 ± 0.0049 |

| Sequence | switch fluorescence ratio |
| --- | --- |
| AGGGTCAACG | 1.018 ± 0.0099 |
| AGGGTCAATG | 0.983 ± 0.013 |
| AGGGTCAGTG | 1.02 ± 0.062 |
| AGGGTCGGAT | 0.972 ± 0.033 |
| AGGGTCTGTA | 0.939 ± 0.015 |
| AGGGTCTGTT | 0.978 ± 0.012 |
| AGGGTGGAAA | 1.02 ± 0.019 |
| AGGGTGGGGT | 0.977 ± 0.043 |
| AGGGTGTGAC | 1.01 ± 0.036 |
| AGGGTTAGGT | 1.003 ± 0.0028 |
| AGGGTTGACA | 0.981 ± 0.046 |
| AGGGTTGACT | 0.964 ± 0.012 |
| AGGGTTTCCA | 1.01 ± 0.06 |
| AGGGTTTGGA | 1 ± 0.02 |
| AGGGTTTTAT | 1.003 ± 0.0048 |
| AGGTAAAGTT | 0.972 ± 0.014 |
| AGGTAAGTAG | 1.01 ± 0.031 |
| AGGTACAGGG | 1.01 ± 0.041 |
| AGGTACGGGG | 0.971 ± 0.012 |
